The nature of this data set: label from the status in PepcDB records.
Take “MSKKKSAAMTLKDFHGGSIPSDLPLPSAPGVTPKVIPDRPVFDRAPWGNSIGRPDQRARPSSSHAIRNLDDKSLFLPHNVNIGRNFSEDERKPLDGHSAPRRVVSDDVFRFANNRLEMKADSVLAGRHSGWAAGPLTHSGTGNIENSVSGNHSNIWNGRKEVSVANNEPGQSPWTKQPAVSNLVHTSALDQVSSGGWQSKLLVPSQMGFDVVKHSEIDTRVYKTNSPVISQGVEPHGTHVERALIAEDGIQRGKKLSREYEKIPGPTYVDAKEAKIVANTNDKPHPKYSDVKPAGHLVQPTAPSEVVERPKLNLLPRTKPLESVEKPVNDEKLENSASVLIQRENATQKSFNNSKSGLSTDEIPNQPAERPKLNLKPVAQLLEQPEVKTEKDRSAVFGGARPRELVLKERGIDEPEHHKLDQPTDRMVLKPIERVPEHASQRPVSSPRDMRTRKFDQKDGRNVSDIARSETQRRNWRENENKSARQQQQTQEKTRHPSPETWRKPVPQKLDSPNGTGIRHGKAASALELAQAYSPFSDPKSGIGSSNSFNKSRNNQTQQQPFSRLVGSTTTGRQINGY”: the protein production result was “failed”. For “PFCAMENQVLVIRIKIPNSGAVDWTVHSGPQLLFRDVLDVIGQVLPEATTTAFEYEDEDGDRITVRSDEEMKAMLSYYYSTVMEQQVNGQLIEPLQIFPR” the value was “not failed”; for “MKHFLTLRDFSKEEILSLVNHASELKKEPKKLLQDKTLAMIFEKNSTRTRMAFELAITELGGKALFLSSNDLQLSRGEPVKDTARVIGAMVDFVMMRVNKHETLLEFARYSKAPVINALSELYHPTQVLGDLFTIKEWNKMQNGIAKVAFIGDSNNMCNSWLITAAILGFEISIAMPKNYKISPEIWEFAMKQALISGAKISLGYDKFEALKDKDVVITDTWVSMGEENEKERKIKEFEGFMIDEKAMSVANKDAILLHCLPAYRGYEVSEEIFEKHADVIFEEARNRLYVVKALLCFLDNQRGRE”, “not failed”. Turning to “MLKNLRLKSFQPEEEYVHFTYSIKNDKREESKELIKEYTTLLQKAIDYLWSLTKIQVRKNGNYKITLPKKKEVYKPLRDELEKINHLASHYVDKAINDAFSILKSWRKRAIKGRASIEKPRVKKAYVRIKTTLRKVVGESVRITVRPYEYITFSWSKSWFSRRVRELELGEPIIKEEKVYLPFRYKLPWATPLNFLAIDSNLYTLDAYDGEKFVTISLKQLYSLKYSMEVKRAKVQSFASKHTKRGRELLRKYSHRERNRVLDFVHKFVNALLDLYPMTFFAVEKLNKESMFVDANDSLSRKISRTVWRSIHRVLKYKAPLYGSFVKEVNPRFTSRSCPRCGFVSRKVGKTFECERCGFKLDRQLNASLNIYLKMCGFPHIRDIARVWVGVIPLMGRRGMNGFPRDFGEAQGLRIDIKYHEIP”, the protein production result was “failed”. For “MATTKRVLYVGGLAEEVDDKVLHAAFIPFGDITDIQIPLDYETEKHRGFAFVEFELAEDAAAAIDNMNESELFGRTIRVNLAKPMRIKE” the value was “not failed”; for “MGKVYRTSQMAASILVNAIYAMKNFPITLVNTLLSPLSFLLVITLASHGRLLSVSVGGALIMSMISSGIGLQGDLSHLKNDFKLQDMVVSSPTTASVYLIGMAISEIVYSIPALAVLGVHASIYIHTTVVGVFQIVAVMVLMFSFSILLGFTLATITYDIIQSWAFSGIISTLISTIPPVYYPITYIPMPFRYAAYASPTTYGAELVQSAIGFVHLSGASFIVDWVILIMINVVFFIIALKKARWREI”, “failed”; for “MQRFALIGAGFIGGVHGDNLAAHPDVDLALVFDIDLARATDLAKRHGSRATTDLAEVFDPTAIDAVFIASSSNTHAEHLRAAATAGIPALCEKPIDLDLAHAVDIVRFAETRSLRAMVDFNRRFDRDYAELQRVVASGEIGSVELIQMTSRGPAMPPLEYIAVSGGQMRDQTVHFFDLARWISGLDPESVFATGSTLAEPRLAEYGDVDTSAVTLRLPGGALVQIDCTRRIGYGYDERIEVLGSTGMVEARRQRAGSVSRYSAGRVVDDGLHAGWFERIRGSYRTALDHFVDALENGAAIGPTLAEGLKAQAIAEAATRSLTSGRMEPIEYPA”, “failed”.

Turning to “METPNPLTLSELPHDLLRNIFNRLSFADFHRATWNSISKQTAPPKTKSPWLILFPDEGVHGCVLYNPDEDRIYKSVRDFSGTIFLANSGNWFLVMDSKSNLYIIDVFSENRIDLPPLESLLSDNFTFEQKGDKELKWQASNDQILVFRLPRAEELRGILWVDEKMKEFVAVWFLEDSCNFLAFYKKADDHYSHIQLEYVITDVFQSVSDIVLHGCFLYIGVGDYIQIIDLSKDQGFKDVTRNYLFNVHNGPWGFRSIFNLVVTTSGEVLMVLNNLYEKNIESEKSFRIFKKDPNPDPNKHDNLLVEVDSLGNEEVMLLDLGITMHGIEPNSIYFTRHDRVVHRLYIS”, the protein production entry is “not failed”. For “MAEEAALNFADFYDAELALHNAHFRVTAAVGRSDRVLDVGCGAGQTTRDAARAAEAGRAHGIDLSATMLEIARRRSAEEGLPNATFELADAQNYHFAKGEFDLCISRFGVMFFADPAVAFANIANAVRPGGRFIFMVWQGRDHNEWATAIHEALDPDSTGPVAAGKAFSLSETSVTSGLLETAGFTAIEFREINEPVFYGPDPETALVTIQTFENVKNALDRPATTAEIRARLLDMLEAHQTPHGVQFDSRAWLITGGRYGDSPPCFIGDFRSA”, the protein production result was “failed”. The value for “EEMEKGFDPKRYARELWFKLQDMMNEGLGYDAVEVLNTLDENPELAHQKFAKVVGVSNYRYYIIQGVGEIVEIKDDGILVKVRENRKVPDLFLSNHIFGNGIVNATGIAKMEDFDRIIDFNLTATELNKIVKEEVVNSFLKQLSKGAGSVGSLVRFIAVFTLLKDEEIKYPIEAIPLYLEIQGGF” was “not failed”; that for “MKLQVLPLSQEAFSAYGDVIETQQRDFFHINNGLVERYHDLALVEILEQDRTLISINRAQPANLPLTIHELERHPLGTQAFIPMKGEVFVVVVALGDDKPDLSTLRAFITNGEQGVNYHRNVWHHPLFAWQRVTDFLTIDRGGSDNCDVESIPEQELCFA” was “not failed”; that for “MGRSQATAESYRDSLTIFKNYLVGELGKSISTFQFSDCTKECIYNFREYLLANGSQPSTVNVRVAAIRAYLNYASDMDISVQSVALAILEHHHHHH” was “failed”. For “SGHPPLEFSDCYLDSPDFRERLKCYEQELERTNKFIKDVIKDGNALISAMRNYSSAVQKFSQTLQSFQFDFIGDTLTDDEINIAESFKEFAELLNEVENERMMMVHNASDLLIKPLENFRKEQIGFTKERKKKFEKDGERFYSLLDRHLHLSSKKKESQLQEADLQVDKERHNFFESSLDYVYQIQEVQESKKFNIVEPVLAFLHSLFISNSLTVELTQDFLPYKQQLQLSLQNTRNHFSSTREEMEELKKRMKEAPQTCKLPGQPTIEGYLYTQEKCVWGHRGIHWVSISQELLPLVGCEFWAPLLFIDP” the value was “not failed”; for “DVREFQPENFARFHPGGSLGRRLLSKVQDEMFSDNIPSVASDADFTSIIHKISSSHLGLTLVNLKDDSLAIITDGDLRRAMESKGRDAFDLVAKDIASINPASISPESNIQKAYEIMESKGITSLIVVESNSVVGIL”, “failed”. For “MDINIGTTHKVFHVLSKIGPAWIVMMADVDVASIITGLQSGAEFGFHMIFVMLILIPPLFIVQNAAGYLGIYSGMGVGEAIRQRYGRRLALLAAIPMASTDILSYIAEYSGIAIGLYMVGVSPYISVPVVFVIHNLIVLMRRYGRIESILMIVSVGLVLFIIVSVALMKPSWHSVILTGLNPIQPYGNHDFDIMIIANLGAIIMPFMIFYQAGASVQKSLLDQDIKISRNETAIGSIVSEVLMVMIVIAGTFIGGYATEPKMLAAALLPFGTYAYYITAAGFVTAGFLALIVISLASSWGIAEALGWKLYSGRRRGMHKAQMKGLTEERSDCDRRKFIYLYMGESIPAAAIALSFSAYLLPLVIDLMIVFVLVLAPVGVLLGLLVSDQKIMNGHRLSKRYMALFWFTLAIIEIAGLYSIITSI” the value was “failed”; for “KVVFAKEQPAHREVQAEAGASATLSCEVAQAQTEVTWYKDGKKLSSSSKVRVEAVGCTRRLVVQQAGQAEAGEYSCEAGGQQLSFRLQVAGQCFG”, “not failed”; for “MWKAVMNAWNGTESQSKNVSNIQSYSFEDMKRIVGKHDPNVVLVDVREPSEYSIVHIPASINVPYRSHPDAFALDPLEFEKQIGIPKPDSAKELIFYCASGKRGGEAQKVASSHGYSNTSLYPGSMNDWVSHGGDKLDL”, “not failed”.

As to “MAQQFIDIGANLTDDNYFGNYHGKHYHEEDIDVVLQRAERNGLSHIIITSGCLNDFKKAIEIINKYQNLTNIKLVTTIGVHPTRTNELKQEGYLDELLLLCEKNIDKVVAIGEIGLDYERLQFSDKETQLSGYRTLSILHQKYPYLPFFFHCRKSWSDLCQLNKELGYNGCKGVVHCFDGTEEEMNQILNEGWDIGVTGNSLQSIELLNVMKQIPIERLHIETDCPYCGIKKTSAGFKYLKEKDFGVKVEKYQRNKYVQRRNEPSNIIDIAIIMSSIKHISLFEFVNKVYSNSMNMYFPTMN”, the protein production result is “not failed”. For “FGNQKIFVCDARADWTNEFRTCSMFKNVHINRWYVITPSRNLRETQEFVQMCIRTASSMKMNICNPIYEEIPDDRNGTYSQAIDNAAANDPQIVMVVMRS” the value was “failed”. For “MCGLAGWVDYTRKLDDEFPAIFAMTDTLALRGPDAEGIWKHRNALLGHRRLAVIDLSGGVQPMSYRFPTGQEVTLVYTGEVYNHDALRERLRRAGHEFRTRSDTEVVLHAYLQWGERCCEYLTGMFAFAVFDGRDGHLLLVRDRLGIKPLYYARHREGLLFGSEIKSILAHPEFAARLDAVGLVDLLTLSRGTSQTPFREVQELLPGHLLSWRPNSQAKLRRYWEVRRQEHADDLQSTVQRTRELVTRALGAQLHADVPVCSLLSGGLDSTALTGIAQRIAKAEHGGDINSFSVDFVGQAEQFRSDDLRPDQDQPFALLAAQYIGSRHRTVLIDNAELVCERAREEVFRAKDVPFTFGDMDTSLHLMFGEIRRHSTVAISGEGADELFGGYGWFRDPQAVAAARFPWASRVRLPAGFIDAGFNRRCDLLQYQQASYDDGLRQVEHLAGDSPEERRMREFSHLHLKRWMVLLLERKDRLSMCNGLEVRVPYTDHELVEYVYNVPWSIKSRDGEEKWLLKRACADYVPEAVLKRRKSPYPTSANLGYERFLRGSVRRLLEDAVNPVFGIVSREFLAAELEHPEGYFNTQVSRHNLETALALEGWLRLYGLS”, the protein production entry is on record as “failed”. “MAVGFFAQVIDGALGMAYGITATTFLLSAGATPAAASASVHIAEVFTTGFSGISHVKLGNVNKSLFLRLLLPGMIGAVLGAVLITRFDGHQLKPFISAYLLLMGLYILSKAYRHVIKRRAPRHVAKLALFGGFVDAAGGGWGPVVTSSLIGSGSDPRTTIGSVNFAEFFLTIASATSFILLAGQPDTWKMVAGLVFGGLFAAPFAALLCKKLSPRTLLVIVGTLITLISAYNIYIGLR”: the protein production entry is listed as “failed”.

As for “MKDFIRYTKKRNLSLNTIRTYESVLKHYEPVLDSWIKIRNKIINSNFKPRTIHLHKNVLLSFFEFKKLKRYLQNLKLLKLPQIEMKYFDVISKNNLYKKTDILDDDSLEIKKYKTIIRFLFETGIRAHELFFLESINNRLYVLGKGNKKRQIFFVKQTFEQLQKFYENLKGFETTKTLRLYIKKIIGKNFTPHSLRRSFATFMLIKGANPKTVMLQMGHANIQTTFSYLNLNEQTNRRIYNKIMYQNDAE”, the protein production result was “failed”. For “RRKVGVLVDGPNMLRKEFNINLKEIREILSEYGDIKIAKVFLNQYATEKLVEAIENQGFEPIVTSGDVDVRMAVEAMELIYNDSIDAVALVTRDADFKAVLMKAMEMGKETIIIGAEPGFSTALKNSADIAIVLNEDEE”, the protein production result was “failed”.
